Test results from patent US20250027090.

Assays:
[1] = target: T1, thrombin (native human beta-thrombin) (Homo sapiens) (UniProt P00734+P00734); assay: EMSA; conditions: for Kd: selection buffer, 10% glycerol, room temperature; for binding signal: 1 uM thrombin
[2] = target: T1, thrombin (native human beta-thrombin) (Homo sapiens); assay: ITC; conditions: L-DNA (all nucleotides); physiological buffer pH 7.4, 25 C
[3] = target: thrombin (native bovine alpha-thrombin) (Bos taurus) (UniProt P00735+P00735); assay: ITC; conditions: L-DNA (all nucleotides)
[4] = target: T1, thrombin (native human beta-thrombin) (Homo sapiens); assay: inhibition; conditions: L-DNA (all nucleotides); R0 pool, no inhibition up to 8 uM

ACGGAACGCGTTTCAAGACTACCGTGTTTGTTCCGT [Cy5-L-9-1t aptamer]
Kd ([1]; L-DNA (all nucleotides)): 21 nM

ACGGAACGCGTTTCAAGACTACCGTGTTTGTTCCGT [L-9-1t aptamer]
Kd [2]: 39 nM
Kd ([3]; ~26-fold weaker than human thrombin): 1030 nM

CGGATCCAGTTACGGAACGCGTTTCAAGACTACCGTGTTTGTTCCGTTCATTCAGTAAGCTTCGG [L-9-1 aptamer]
Kd [2]: 29 nM

CGGATCCAGTTACGGANNNNNNNNNNNNNNNNNNNNNNNNNNNNNNTTCATTCAGTAAGCTTCGG [R0 L-DNA library pool]
IC50 [4]: > 8000 nM

CGGATCCAGTTACGGANNNNNNNNNNNNNNNNNNNNNNNNNNNNNNTTCATTCAGTAAGCTTCGG [R6 D-DNA pool]
binding signal [1]: 70 % bound

CGGATCCAGTTACGGANNNNNNNNNNNNNNNNNNNNNNNNNNNNNNTTCATTCAGTAAGCTTCGG [R9 L-DNA pool]
binding signal ([1]; L-DNA (all nucleotides), 200 nM pool): 70 % bound

CGGATCCAGTTACGGATGAACTTGTTGAAACCCAACGGGAGAATCGTTCATTCAGTAAGCTTCGG [L-9-2 aptamer]
Kd [2]: 168 nM

CGGATCCAGTTACGGATGAACTTGTTGAAACCCAACGGGAGCCTCGTTCATTCAGTAAGCTTCGGTGG [L-13 aptamer]
Kd [2]: 22 nM

GATGAACTTGTTGAAACCCAACGGGAGAATCGTTCATT [Cy5-L-9-2t aptamer]
Kd ([1]; L-DNA (all nucleotides)): 355 nM

GATGAACTTGTTGAAACCCAACGGGAGAATCGTTCATT [L-9-2t aptamer]
Kd [2]: 251 nM
Kd ([3]; ~1.7-fold weaker than human thrombin): 426 nM

GATGAACTTGTTGAAACCCAACGGGAGCCTCGTTCATT [Cy5-L-13t aptamer]
Kd ([1]; L-DNA (all nucleotides)): 28 nM

GATGAACTTGTTGAAACCCAACGGGAGCCTCGTTCATT [L-13t aptamer]
Kd [2]: 34 nM
